Test results as given in article PMC4908583.
pKd: −log10 of the molar value.

Molecular target: FPRL1 (formyl peptide receptor-like 1) inhibitory protein (FLIPr) (S. aureus) (UniProt Q2FZC0)
Experiment: BLI

FPRL1 (formyl peptide receptor-like 1) inhibitory protein (FLIPr) (S. aureus), sequence (Q2FZC0 25-133): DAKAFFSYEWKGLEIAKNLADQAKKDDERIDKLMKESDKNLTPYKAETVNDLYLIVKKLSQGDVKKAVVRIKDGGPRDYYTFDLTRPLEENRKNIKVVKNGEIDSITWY

Substance	pKd
complement component 1q subcomponent A (C1QA) (from UniProt P02745 23-245) (natural protein)	8.49
complement component 1q subcomponent B (C1QB) (from UniProt P02746 28-253) (natural protein)	8.68
complement component 1q subcomponent C (C1QC) (from UniProt P02747 29-245) (natural protein)	8.00
